Measurements from PMC5519287 (Cell reports, 2017).

Molecular target: the molecule itself
Assay: single molecule analysis

B1: EGFP-S1C 4KA (domain or fragment, UniProt Q13586 342-465, looked up)
chain: YAPEALQKWLQLTHEVEVQYYNIKKQNAEKQLLVAKEGAEAIAAARNTLFGTFHVAHSSSLDDVDHKILTAKQALSEVTAALRERLHRWQQIEILCGFQIVNNPGIHSLVAALNIDPSWMGSTR
In the case of B1, the “stoichiometry N” value is reported as 2.
